Laboratory results published in patent US20240026017A1 (Kyowa Kirin, published 2024).
Positions count from the first letter of the chain named.

How the values were obtained:
[1] = biological target: T1, human CCR3 (human, UniProt P51677 1-355); experiment: flow cytometry on CHO-S-hCCR3 cells, hybridoma culture supernatant diluted 10-fold
T1 construct: whole, on cells; also called hCCR3; CHO-S-hCCR3 (expressing cells)
T1 sequence (looked up): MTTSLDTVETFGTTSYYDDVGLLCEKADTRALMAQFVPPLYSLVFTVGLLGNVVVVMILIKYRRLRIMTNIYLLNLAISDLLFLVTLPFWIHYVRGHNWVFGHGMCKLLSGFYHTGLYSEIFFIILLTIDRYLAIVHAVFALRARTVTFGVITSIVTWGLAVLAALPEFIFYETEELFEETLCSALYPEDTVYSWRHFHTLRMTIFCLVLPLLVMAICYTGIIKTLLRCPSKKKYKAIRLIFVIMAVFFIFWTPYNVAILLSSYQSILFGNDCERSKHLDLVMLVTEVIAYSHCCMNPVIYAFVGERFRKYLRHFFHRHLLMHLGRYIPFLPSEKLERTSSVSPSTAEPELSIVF
Description: As test antibodies, each hybridoma culture supernatant diluted 10-fold, an existing mouse anti-human CCR1 monoclonal antibody 53504 antibody (R & D Technologies), and a mouse anti-human CCR3 monoclonal antibody 444-11 antibody (MBL) were used.
Regarding the measurement results, the fluorescence intensity when a certain cell was stained with a certain test antibody (each hybridoma culture supernatant, 53504 antibody or 444-11 antibody) and a secondary antibody was divided by the fluorescence intensity when the cell was stained only with the secondary antibody. […] In Table 2, the results are indicated as A and B, respectively.

[2] = biological target: T2, human CC chemokine receptor 1 (human CCR1) (human, UniProt P32246 1-355); experiment: flow cytometry on CHO-S-hCCR1 cells; bound = fluorescence 10 times or more that of isotype control chDNP1
T2 construct: endogenous on THP-1 cells in the migration assays; also called hCCR1; CHO-S-hCCR1 (expressing cells)
T2 sequence: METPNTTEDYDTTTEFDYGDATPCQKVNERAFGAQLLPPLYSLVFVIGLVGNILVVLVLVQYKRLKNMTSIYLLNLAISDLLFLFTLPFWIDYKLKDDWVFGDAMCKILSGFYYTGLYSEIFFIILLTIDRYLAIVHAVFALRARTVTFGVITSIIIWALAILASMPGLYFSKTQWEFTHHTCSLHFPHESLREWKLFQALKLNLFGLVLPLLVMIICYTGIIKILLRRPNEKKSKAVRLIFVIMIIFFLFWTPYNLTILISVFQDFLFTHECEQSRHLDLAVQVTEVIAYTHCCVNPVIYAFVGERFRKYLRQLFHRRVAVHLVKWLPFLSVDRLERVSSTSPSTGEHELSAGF
Description: The antigen affinity of the chKM5908′ antibody, which is a VL-substituted chimeric antibody, was measured by flow cytometry using the CHO-S-hCCR1 cells produced in Example 2. The cells were collected by centrifugation, the supernatant was removed, and the cells were suspended in PBS (Staining Medium, hereinafter, abbreviated as SM) containing 2% fetal bovine serum (FBS), 0.05% NaN₃, and 1 mM EDTA. Next, the cells were seeded in a 96-well plate so that the number of cells is 1×10⁵ per well, and the chKM5908′ antibody was added at each final concentration of 10,000, 2,000, 400, 80, 16, and 3.2 ng/mL, and the reaction was performed at 4° C. for 60 minutes. After washing the cells with SM, Goat F (ab′)₂ Anti-Human IgG PE (γ chain specific) (Southern Biotech) diluted 500-fold with SM was added and reacted at 4° C. for 60 minutes. After washing the cells with SM, the cells were resuspended in 50 μL of SM, and the fluorescence intensity was measured by the flow cytometry (FACS Canto II, BD Biosciences).
1996 June; 33 (9):759-68, hereinafter, referred to as chDNP1)] were determined to be bound to the human CCR1.

B1: KM5907 antibody (antibody, mouse IgG1, V domains shown)
VH: EVQVVESGGNLVKPGGSLKLSCSASGFTFSRYGMSWVRQTPDKRLEWVASISATFTYTYYTDNVKGRFTISRDNAKNTLYLQMSSLRSEDTGMYYCTRQDNYAWFDSWGQGTLVTVSA
VL: DVLMTQTPLSLPVSLGDQVSISCRSSQSIVHSNGNTFLEWYLKKPGQSPKLLIYKVSSRFSGVPDRFSGSGSGTDFTLKIRRVEADDLGVYYCFQGSHIPWTFGGGTNLEIK
notes: mouse IgG1 from hybridoma
Q: Which “fluorescence intensity ratio (test antibody + secondary / secondary only)” value [1] does the source give for B1 here?
A: < 10 fold

B2: KM5909 antibody (antibody, mouse IgG1, V domains shown)
VH: EVQLVESGGDLVKPGGSLKLSCAASGFTLSNYGMSWVRQTPDKRLEWVASISIGNYIYYLDSVKGRFTIYRDNAKNTLFLQMRSLKSEDTAMYHCARQGNDYDWFTYWGQGTLVTVSA
VL: B1 VL with V19A, I29V, S32T, F37Y, K43Q, S58N, R81N, D86E, I99L, N108K
notes: mouse IgG1 from hybridoma
Q: B2 was tested. Which “fluorescence intensity ratio (test antibody + secondary / secondary only)” value [1] did it give?
A: < 10 fold

B3: KM5954 antibody (antibody, mouse IgG2a, V domains shown)
VH: QVQLKESGPGLVAPSQSLSITCTVSGFSLPRYTITWVRQPPGKGLEWLGLIRTGGGTIYNSALKSRLSISKDNSKSQVFLKMNSLQSGDTARYYCARNGAYYSKSGSYWYFDVWGTGTTVTVSS
VL: QIVLTQSPAIMSVSLGEEITLTCSASSSVSYMHWYQQKSGTSPKLLIYSTSNLASGVPSRFSGSGSGTFYSLTISSVEAEDAADYYCHQWSSHPCTFGGGTKLEIK
notes: mouse IgG2a from hybridoma
Q: Which “fluorescence intensity ratio (test antibody + secondary / secondary only)” value [1] does the source give for B3 here?
A: < 10 fold

B4: KM5956 antibody (antibody, mouse IgG2a, V domains shown)
VH: B3 VH with P30A, K104N
VL: B3 VL with V13A, S30T, T101A
notes: mouse IgG2a from hybridoma
Q: With B4 as the binder, how does the “fluorescence intensity ratio (test antibody + secondary / secondary only)” value [1] read?
A: < 10 fold

B5: KM5908 antibody (antibody, mouse IgG2a, V domains shown)
VH: QVQLKQSGPGLVQPSQSLSITCTVSGFSLNNYGVHWVRQPPGKGLEWLGVIWSAGTTVYNAAFISRLSISKDDSKSQVFFKMNSLQAGDTAIYYCAKDGSRYYTAMDYWGQGTSVTVSS
VL: DVVMTQTPRSLPVSLGDQASISCRSRQSLIHSNGITFLHWYLQKAGQSPKLLIYKVSNRFSGVPDRFSGSGSGTDFTLRISRVEAEDLGVYFCSQGTHVPPTFGGGTKLEIK
notes: mouse IgG2a from hybridoma
Q: How did the “fluorescence intensity ratio (test antibody + secondary / secondary only)” value [1] turn out when B5 was run?
A: < 10 fold

B6: chKM5908′ mut10 (antibody, V domains shown)
VH: B5 VH with T104A
VL: DVVMTQTPLSLPVSLGDQASIFCRSSQSLVHRNGITFFHWYLQKPGQSPKLLIYKVSNRFSGVPDRFSGSGSGTDFTLKISRVAPDDLGVYFCSQGTHVPPTFGGGTKLEIK
Q: Does B6 bind [2]?
A: binds

B7: chKM5908′ mut26 (antibody, V domains shown)
VH: B5 VH with F63A
VL: B6 VL with R59K
Q: Does B7 bind [2]?
A: binds

B8: chKM5908′ mut31 (antibody, V domains shown)
VH: B5 VH with I51T, V58A, I64A
VL: B6 VL with F38A, V56I
Q: Does B8 bind [2]?
A: binds

B9: chKM5908′ mut12 (antibody, V domains shown)
VH: B5 VH with I51T, I64A, Y102A, T104A
VL: B6 VL
Q: Does B9 bind [2]?
A: binds

B10: chKM5908′ mut13 (antibody, V domains shown)
VH: B5 VH with I51T, I64A, T104A
VL: B6 VL
Q: Does B10 bind [2]?
A: binds

B11: chKM5908′ mut27 (antibody, V domains shown)
VH: B5 VH with I51T, V58A, I64A
VL: B6 VL with R59K
Q: Does B11 bind [2]?
A: binds

B12: chKM5908′ mut25 (antibody, V domains shown)
VH: B5 VH with I51T
VL: B6 VL with R59K
Q: Does B12 bind [2]?
A: binds

B13: chKM5908′ mut08 (antibody, V domains shown)
VH: B5 VH with I64A
VL: B6 VL
Q: Does B13 bind [2]?
A: binds

B14: chKM5908′ mut11 (antibody, V domains shown)
VH: B5 VH with I51T, V58A, I64A
VL: B6 VL
Q: Does B14 bind [2]?
A: binds

B15: chKM5908′ mut18 (antibody, V domains shown)
VH: B5 VH with F63A
VL: B6 VL with F38A
Q: Does B15 bind [2]?
A: binds

B16: chKM5908′ mut20 (antibody, V domains shown)
VH: B5 VH with I51T, I64A, Y102A, T104A
VL: B6 VL with F38A
Q: Does B16 bind [2]?
A: binds

B17: chKM5908′ mut17 (antibody, V domains shown)
VH: B5 VH with I51T
VL: B6 VL with F38A
Q: Does B17 bind [2]?
A: binds

B18: chKM5908′ mut21 (antibody, V domains shown)
VH: B5 VH with I51T
VL: B6 VL with V56I
Q: Does B18 bind [2]?
A: binds

B19: chKM5908′ mut32 (antibody, V domains shown)
VH: B5 VH with I51T, I64A, Y102A, T104A
VL: B6 VL with F38A, V56I
Q: Does B19 bind [2]?
A: binds

B20: chKM5908′ mut19 (antibody, V domains shown)
VH: B5 VH with I51T, V58A, I64A
VL: B6 VL with F38A
Q: Does B20 bind [2]?
A: binds

B21: chKM5908′ mut29 (antibody, V domains shown)
VH: B5 VH with I51T
VL: B6 VL with F38A, V56I
Q: Does B21 bind [2]?
A: binds

B22: chKM5908′ mut23 (antibody, V domains shown)
VH: B5 VH with I51T, V58A, I64A
VL: B6 VL with V56I
Q: Does B22 bind [2]?
A: binds

B23: chKM5908′ mut15 (antibody, V domains shown)
VH: B5 VH with I51T, Y102A, T104A
VL: B6 VL
Q: Does B23 bind [2]?
A: binds

B24: chKM5908′ mut09 (antibody, V domains shown)
VH: B5 VH with Y102A
VL: B6 VL
Q: Does B24 bind [2]?
A: binds

B25: chKM5908′ mut24 (antibody, V domains shown)
VH: B5 VH with I51T, I64A, Y102A, T104A
VL: B6 VL with V56I
Q: Does B25 bind [2]?
A: binds

B26: chKM5908′ mut07 (antibody, V domains shown)
VH: B5 VH with F63A
VL: B6 VL
Q: Does B26 bind [2]?
A: binds

B27: chKM5908′ mut14 (antibody, V domains shown)
VH: B5 VH with I51T, I64A
VL: B6 VL
Q: Does B27 bind [2]?
A: binds

B28: chKM5908′ mut30 (antibody, V domains shown)
VH: B5 VH with F63A
VL: B6 VL with F38A, V56I
Q: Does B28 bind [2]?
A: binds

B29: chKM5908′ mut22 (antibody, V domains shown)
VH: B5 VH with F63A
VL: B6 VL with V56I
notes: also called mAb5-06; mAb 5-06
Q: Does B29 bind [2]?
A: binds

B30: chKM5908′ mut28 (antibody, V domains shown)
VH: B5 VH with I51T, I64A, Y102A, T104A
VL: B6 VL with R59K
Q: Does B30 bind [2]?
A: binds
